The chains are these.
B1: 472 (protein)
chain: MAQGKVALEEHFAIPETLNDAAGFVPGDYWKELQHRLLDIQDQRLRLMDKHEIGTMILSLAAPAVQAIPDRRKAIEIARRANDFLAEEVAKRPDRFLAFAALPLQDPDAATEELQRCVNDLGFVGAMVNGFSQEGDGQTPLYYDLPQYRPFWKEVEKLDVPFYLHPRNPLPQDSRIYDGHPWLLGPTWAFAQETAVHALRLMASGLFDEHPGLNIILGHMGEGLPYMMYRIDHRIAWVKAPPDYPAKRRFMDYFLENFHITTSGNFRTQTLIDAILEIGADRILFSTDWPFENIDHAAAWFNATSIAEADRVKIGRTNARRLFKLDGR
modifications: Dicamba decarboxylase variant
B2: 460 (protein)
chain: MAQGKVALEEHFAIPETLQDAAGFVPGDYWKELQHRLLDIQDTRLKLMDKHEIETMILSLAAPAVQAIPDRVKAIEIARRANDFLAEEVAKRPDRFLAFAALPLQDVDAATEELQRCVNDLGFVGAMVNGFSQEGDGQTPLYYDLPQYRPFWGEVEKLDVPFYLHPRNPLPQDSRIYDGHPWLLGPTWAFAQETAVHALRLMASGLFDEHPRLNIILGHMGEGLPYMMYRIDHRIAWVKAPPDYPAKRRFMDYFNENFHITTSGNFRTQTLIDAILEIGADRILFSTDWPFENIDHAADWFNAASIAEADRVKIGRTNARRLFKLDGR
modifications: Dicamba decarboxylase variant
B3: 468 (protein)
chain: MAQGKVALEEHFAIPETLNDAAGFVPGDYWKELQHRLLDIQDTRLKLMDKHEIETMILSLAAPAVQAIPDRVKAIEIARRANDFLAEEVAKRPDRFLAFAALPLQDVDAATEELQRCVNDLGFVGAMVNGFSQEGDGQTPLYYDLPQYRPFWGEVEKLDVPFYLHPRNPLPQDSRIYDGHPWLLGPTWAFAQETAVHALRLMASGLFDEHPRLNIILGHMGEGLPYMMYRIDHRIAWVKAPPDYPAKRRFMDYFLENFHITTSGNFRTQTLIDAILEIGADRILFSTDWPFENIDHAADWFNATSIAEADRVKIGRTNARRLFKLDGR
modifications: Dicamba decarboxylase variant
B4: 463 (protein)
chain: MAQGKVALEEHFAIPETLQDAAGFVPGDYWKELQHRLLDIQDTRLKLMDKHEIETMILSLAAPAVQAIPDRRKAIEIARRANDFLAEEVAKRPDRFLAFAALPLQDVDAATEELQRCVNDLGFVGAMVNGFSQEGDGQTPLYYDLPQYRPFWGEVEKLDVPFYLHPRNPLPQDSRIYDGHPWLLGPTWAFAQETAVHALRLMASGLFDEHPRLNIILGHMGEGLPYMMYRIDHRIAWVKAPPDYPAKRRFMDYFLENFHITTSGNFRTQTLIDAILEIGADRILFSTDWPFENIDHAADWFNATSIAEADRVKIGRTNARRLFKLDGR
modifications: Dicamba decarboxylase variant
B5: 467 (protein)
chain: MAQGKVALEEHFAIPETLDDAAGFVPGDYWKELQHRLLDIQDTRLKLMDKHEIETMILSLAAPAVQAIPDRVKAIEIARRANDFLAEEVAKRPDRFLAFAALPLQDPDAATEELQRCVNDLGFVGAMVNGFSQEGDGQTPLYYDLPQYRPFWGEVEKLDVPFYLHPRNPLPQDSRIYDGHPWLLGPTWAFAQETAVHALRLMASGLFDEHPRLNIILGHMGEGLPYMMYRIDHRIAWVKAPPDYPAKRRFMDYFNENFHITTSGNFRTQTLIDAILEIGADRILFSTDWPFENIDHAADWFNATSIAEADRVKIGRTNARRLFKLDGR
modifications: Dicamba decarboxylase variant
B6: 471 (protein)
chain: MAQGKVALEEHFAIPETLQDAADFVPGDYWKELQHRLLDIQDTRLKLMDKHEIETMILSLAAPAVQAIPDRRKAIEIARRANDFLAEEVAKRPDRFLAFAALPLQDPDAATEELQRCVRDLGFVGAMVNGFSQEGDGQTPLYYDLPQYRPFWGEVEKLDVPFYLHPRNPLPQDSRIYDGHPWLLGPTWAFAQETAVHALRLMASGLFDEHPRLNIILGHLGEGLPYMMYRIDHRIAWVKAPPDYPAKRRFMDYFLENFHITTSGNFRTQTLIDAILEIGADRILFSTDWPFENIDHAADWFNATSIAEADRVKIGRTNARRLFKLDGR
modifications: Dicamba decarboxylase variant
B7: 470 (protein)
chain: MAQGKVALEEHFAIPETLQDAAGFVPGDYWKELQHRLLDIQDTRLKLMDKHEIETMILSLAAPAVQAIPDRRKAIEIARRANDFLAEEVAKRPDRFLAFAALPMQDVDAATEELQRCVRDLGFVGAMVNGFSQEGDGQTPLYYDLPQYRPFWGEVEKLDVPFYLHPRNPLPQDSRIYDGHPWLLGPTWAFAQETAVHALRLMASGLFDEHPRLNIILGHLGEGLPYMMYRIDHRIAWVKAPPDYPAKRRFMDYFLENFHITTSGNFRTQTLIDAILEIGADRILFSTDWPFENIDHAADWFNATSIAEADRVKIGRTNARRLFKLDGR
modifications: Dicamba decarboxylase variant
B8: 462 (protein)
chain: MAQGKVALEEHFAIPETLQDAADFVPGDYWKELQHRLLDIQDTRLKLMDKHEIETMILSLAAPAVQAIPDRRKAIEIARRANDFLAEEVAKRPDRFLAFAALPLQDVDAATEELQRCVNDLGFVGAMVNGFSQEGDGQTPLYYDLPQYRPFWGEVEKLDVPFYLHPRNPLPQDSRIYDGHPWLLGPTWAFAQETAVHALRLMASGLFDEHPRLNIILGHMGEGLPYMMYRIDHRIAWVKAPPDYPAKRRFMDYFNENFHITTSGNFRTQTLIDAILEIGADRILFSTDWPFENIDHAADWFNATSIAEADRVKIGRTNARRLFKLDGR
modifications: Dicamba decarboxylase variant
B9: 469 (protein)
chain: MAQGKVALEEHFAIPETLQDAAGFVPGDYWKELQHRLLDIQDTRLKLMDKHEIGTMILSLAAPAVQAIPDRRKAIEIARRANDFLAEEVAKRPDRFLAFAALPLQDPDAATEELQRCVNDLGFVGAMVNGFSQEGDGQTPLYYDLPQYRPFWGEVEKLDVPFYLHPRNPLPQDSRIYDGHPWLLGPTWAFAQETAVHALRLMASGLFDEHPRLNIILGHMGEGLPYMMYRIDHRIAWVKAPPDYPAKRRFMDYFNENFHITTSGNFRTQTLIDAILEIGADRILFSTDWPFENIDHAADWFNATSIAEADRVKIGRTNARRLFKLDGR
modifications: Dicamba decarboxylase variant
B10: 461 (protein)
chain: MAQGKVALEEHFAIPETLQDAAGFVPGDYWKELQHRLLDIQDTRLKLMDKHEIETMILSLAAPAVQAIPDRVKAIEIARRANDFLAEEVAKRPDRFLAFAALPLQDPDAATEELQRCVNDLGFVGAMVNGFSQEGDGQTPLYYDLPQYRPFWGEVEKLDVPFYLHPRNPLPQDSRIYDGHPWLLGPTWAFAQETAVHALRLMASGLFDEHPRLNIILGHMGEGLPYMMYRIDHRIAWVKAPPDYPAKRRFMDYFLENFHITTSGNFRTQTLIDAILEIGADRILFSTDWPFENIDHAADWFNATSIAEADRVKIGRTNARRLFKLGGR
modifications: Dicamba decarboxylase variant
B11: 466 (protein)
chain: MAQGKVALEEHFAIPETLNDAAGFVPGDYWKELQHRLLDIQDTRLKLMDKHEIETMILSLAAPAVQAIPDRVKAIEIARRANDFLAEEVAKRPDRFLAFAALPLQDPDAATEELQRCVNDLGFVGAMVNGFSQEGDGQTPLYYDLPQYRPFWGEVEKLDVPFYLHPRNPLPQDSRIYDGHPWLLGPTWAFAQETAVHALRLMASGLFDEHPRLNIILGHMGEGLPYMMYRIDHRIAWVKAPPDYPAKRRFMDYFNENFHITTSGNFRTQTLIDAILEIGADRILFSTDWPFENIDHAADWFNATSIAEADRVKIGRTNARRLFKLDGR
modifications: Dicamba decarboxylase variant
B12: 473 (protein)
chain: MAQGKVALEEHFAIPETLQDAAGFVPGDYWKELQHRLLDIQDTRLKLMDKHEIETMILSLAAPAVQAIPDRRKAIEIARRANDFLAEEVAKRPDRFLAFAALPLQDPDAATEELQRCVRDLGFVGAMVNGFSQEGDGQTPLYYDLPQYRPFWGEVEKLDVPFYLHPRNPLPQDSRIYDGHPWLLGPTWAFAQETAVHALRLMASGLFDEHPGLNIILGHLGEGLPYMMYRIDHRIAWVKAPPDYPAKRRFMDYFLENFHITTSGNFRTQTLIDAILEIGADRILFSTDWPFENIDHAAAWFNATSIAEADRVKIGRTNARRLFKLDGR
modifications: Dicamba decarboxylase variant
B13: 465 (protein)
chain: MAQGKVALEEHFAIPETLNDAADFVPGDYWKELQHRLLDIQDTRLKLMDKHEIETMILSLAAPAVQAIPDRRKAIEIARRANDFLAEEVAKRPDRFLAFAALPLQDPDAATEELQRCVNDLGFVGAMVNGFSQEGDGQTPLYYDLPQYRPFWGEVEKLDVPFYLHPRNPLPQDSRIYDGHPWLLGPTWAFAQETAVHALRLMASGLFDEHPRLNIILGHMGEGLPYMMYRIDHRIAWVKAPPDYPAKRRFMDYFNENFHITTSGNFRTQTLIDAILEIGADRILFSTDWPFENIDHAADWFNATSIAEADRVKIGRTNARRLFKLDGR
modifications: Dicamba decarboxylase variant
B14: 464 (protein)
chain: MAQGKVALEEHFAIPETLNDAAGFVPSDYWKELQHRLLDIQDTRLKLMDKHEIETMILSLAAPAVQAIPDRVKAIEIARRANDFLAEEVAKRPDRFLAFAALPLQDPDAATEELQRCVNDLGFVGALVNGFSQEGDGQTPLYYDLPQYRPFWGEVEKLDVPFYLHPRNPLPQDSRIYDGHPWLLGPTWAFAQETAVHALRLMASGLFDEHPRLNIILGHMGEGLPYMMYRIDHRIAWVKAPPDYPAKRRFMDYFLENFHITTSGNFRTQTLIDAILEIGADRILFSTDWPFENIDHAADWFNATSIAEADRVKIGRTNARRLFKLDGR
modifications: Dicamba decarboxylase variant
B15: 542 (protein)
chain: MAQGKVALEEHFAIPETLQDAAGFVPGDYWKELQHRLLDIQDTRLKEMDRHGIGTMVLSLAAPAVQAIPDRRKAIEIARRANDFLAEEVAKRPDRFLAFAALPLQDVDAATEELQRCVADLGFVGAMVNGFSQEGDGQTPLYYDLPQYRPFWKEVEKLDVPFYLHPRNPLPQDSRIYDGHPWLLGPTWAFAQETAVHALRLMASGLFDEHPRLNIILGHMGEGLPYMMYRIDHRIAWVKAPPDYPAKRRFMDYFLENFHITTSGNFRTQTLIDAILEIGADRILFSTDWPFENIDHAADWFAATSIAEADRVKIGRTNARRLFKLDGR
modifications: Dicamba decarboxylase variant

From patent US20160053277A1, “Compositions Having Dicamba Decarboxylase Activity and Methods of Use” (PIONEER HI-BRED INTERNATIONAL, INC., priority 2013, published 2016) come the findings set out here.

The nature of one assay: Shuffled variant libraries: 14CO2 capturing assay in 384-well format. The following applies: decarboxylation activity (carbon dioxide released) compared with unmutated backbone protein SEQ ID NO 380 (DDEC0301).
As for B1, the “Fold Activity” value is reported as 1.4.

For the molecule B2, the “Fold Activity” value was found to be 1.9.

As to B3, the “Fold Activity” value turned out to be 2.1.

For the molecule B4, the “Fold Activity” value was 1.6.

Take B5: the “Fold Activity” value is on record as 1.7.

Consider B6, for which the “Fold Activity” value is 1.3.

On to B7, for which the “Fold Activity” value came to 1.8.

As to B8, the “Fold Activity” value is 1.1.

In the case of B9, the “Fold Activity” value is on record as 1.8.

With B10, the “Fold Activity” value is 1.7.

For B11, the “Fold Activity” value worked out at 1.8.

B12: the “Fold Activity” value was found to be 1.9.

With B13, the “Fold Activity” value worked out at 1.6.

In the case of B14, the “Fold Activity” value stood at 1.0.

The assay is the same for the next values; noted with them: decarboxylation activity (carbon dioxide released) compared with unmutated backbone protein SEQ ID NO 509 (DDEC0810).
For the molecule B15, the “Fold Activity” value worked out at 1.0.
